Here are results for one molecule from publication PMC2688778 (Structure (London, England : 1993), 2009).

The term Kd denotes the free concentration of one partner at which half of the binding sites on the other are occupied at equilibrium, for simple one-to-one binding. A low value points to tighter binding.

Experiment in all cases: fluorescence anisotropy
For orientation: Fluorescence polarisation rises when a labelled molecule tumbles more slowly, as on binding a larger partner.

One series addresses T1, RecE564 E729A (Escherichia coli K12, UniProt P15032 564-866, E729A).
T1 sequence: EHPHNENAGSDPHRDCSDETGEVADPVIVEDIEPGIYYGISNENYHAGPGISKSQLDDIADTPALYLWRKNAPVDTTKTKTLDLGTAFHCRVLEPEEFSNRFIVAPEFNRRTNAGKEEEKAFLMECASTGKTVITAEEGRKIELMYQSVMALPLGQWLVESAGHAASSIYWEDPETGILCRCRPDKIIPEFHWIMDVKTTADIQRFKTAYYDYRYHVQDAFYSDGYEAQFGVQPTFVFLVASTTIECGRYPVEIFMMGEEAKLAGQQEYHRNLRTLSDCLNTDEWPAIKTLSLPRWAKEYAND

In the next series the target is T2, RecE564 Q781A (Escherichia coli K12, UniProt P15032 564-866, Q781A).
T2 sequence: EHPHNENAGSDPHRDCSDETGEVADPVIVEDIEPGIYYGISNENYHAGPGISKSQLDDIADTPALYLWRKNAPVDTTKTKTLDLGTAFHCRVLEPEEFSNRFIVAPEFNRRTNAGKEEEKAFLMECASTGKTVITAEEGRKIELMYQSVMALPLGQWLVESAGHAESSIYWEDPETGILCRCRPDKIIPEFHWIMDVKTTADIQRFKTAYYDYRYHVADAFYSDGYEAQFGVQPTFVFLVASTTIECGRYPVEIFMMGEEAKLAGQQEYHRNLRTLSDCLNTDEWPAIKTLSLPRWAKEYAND

A further series concerns the target T3, RecE564 T675A (Escherichia coli K12, UniProt P15032 564-866, T675A).
T3 sequence: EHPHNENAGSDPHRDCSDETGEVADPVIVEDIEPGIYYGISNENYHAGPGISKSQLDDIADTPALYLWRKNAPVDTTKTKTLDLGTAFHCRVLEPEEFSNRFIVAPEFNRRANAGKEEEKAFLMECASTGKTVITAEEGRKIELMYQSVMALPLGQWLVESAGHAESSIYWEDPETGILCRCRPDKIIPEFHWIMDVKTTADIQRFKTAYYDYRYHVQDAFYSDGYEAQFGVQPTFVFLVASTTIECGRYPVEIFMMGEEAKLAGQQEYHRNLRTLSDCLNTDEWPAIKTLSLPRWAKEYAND

A further series concerns the target T4, RecE564 K704A (Escherichia coli K12, UniProt P15032 564-866, K704A).
T4 sequence: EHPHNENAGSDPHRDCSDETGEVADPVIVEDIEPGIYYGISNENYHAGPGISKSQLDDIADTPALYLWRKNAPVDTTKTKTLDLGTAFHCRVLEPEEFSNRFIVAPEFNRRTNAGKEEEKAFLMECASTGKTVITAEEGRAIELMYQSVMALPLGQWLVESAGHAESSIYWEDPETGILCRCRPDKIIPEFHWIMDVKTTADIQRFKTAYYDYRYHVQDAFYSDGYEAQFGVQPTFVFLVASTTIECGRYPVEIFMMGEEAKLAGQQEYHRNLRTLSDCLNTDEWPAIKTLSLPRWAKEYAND

The next series deals with T5, RecE564 R744A (Escherichia coli K12, UniProt P15032 564-866, R744A).
T5 sequence: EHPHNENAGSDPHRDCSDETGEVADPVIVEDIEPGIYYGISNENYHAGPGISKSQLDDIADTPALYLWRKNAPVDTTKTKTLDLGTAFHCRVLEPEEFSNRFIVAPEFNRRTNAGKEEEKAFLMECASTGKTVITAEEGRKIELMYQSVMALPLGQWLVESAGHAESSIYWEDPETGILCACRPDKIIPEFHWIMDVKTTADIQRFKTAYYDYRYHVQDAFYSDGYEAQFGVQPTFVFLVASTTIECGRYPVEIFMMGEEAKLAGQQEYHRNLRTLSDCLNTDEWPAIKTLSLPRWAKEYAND

The next series concerns the target T6, RecE564 R768A (Escherichia coli K12, UniProt P15032 564-866, R768A).
T6 sequence: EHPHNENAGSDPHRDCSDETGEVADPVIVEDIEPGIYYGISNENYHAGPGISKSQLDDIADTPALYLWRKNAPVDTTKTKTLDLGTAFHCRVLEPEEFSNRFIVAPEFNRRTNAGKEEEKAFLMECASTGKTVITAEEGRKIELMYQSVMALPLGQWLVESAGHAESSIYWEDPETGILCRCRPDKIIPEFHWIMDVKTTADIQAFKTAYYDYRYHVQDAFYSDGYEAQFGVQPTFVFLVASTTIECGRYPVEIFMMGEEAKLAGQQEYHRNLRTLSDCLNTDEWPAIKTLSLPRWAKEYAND

B1: F25 (dsDNA)
DNA 1: TAGAGCTTAATTGCTGAATCTGGTG
DNA 2: CACCAGATTCAGCAATTAAGCTCTA
Regarding B1, the Kd in the series with RecE564 E729A came out at 57 ± 3 nM; with RecE564 Q781A it was 70 ± 20 nM; in the series with RecE564 T675A it was 650 ± 30 nM; in the series with RecE564 K704A it was 330 ± 50 nM; with RecE564 R744A, 95 ± 8 nM; with RecE564 R768A, 310 ± 30 nM.
